Laboratory results: patent US20230331860A1

Tests used:
Assay in all cases: FcγR binding, SPR (method per paragraph 74)
[1] = target: cyCD16 (cynomolgus monkey) (UniProt Q8SPW2)
[2] = target: cyCD32a (cynomolgus monkey)
[3] = target: cyCD32b (cynomolgus monkey)
[4] = target: cyCD64 (cynomolgus monkey)
hCD16a-F158 (human) = hCD16a-F158 (human) (UniProt P08637)
hCD16a-V158 (human) = hCD16a-V158 (human) (UniProt P08637)
hCD32a-H131 (human) = hCD32a-H131 (human) (UniProt P12318)
hCD32a-R131 (human) = hCD32a-R131 (human) (UniProt P12318)
hCD32b (human) = hCD32b (human) (UniProt P31994)
hCD64 (human) = hCD64 (human) (UniProt P12314)
Chain of hCD64 (human) (P12314 16-288 limits assumed): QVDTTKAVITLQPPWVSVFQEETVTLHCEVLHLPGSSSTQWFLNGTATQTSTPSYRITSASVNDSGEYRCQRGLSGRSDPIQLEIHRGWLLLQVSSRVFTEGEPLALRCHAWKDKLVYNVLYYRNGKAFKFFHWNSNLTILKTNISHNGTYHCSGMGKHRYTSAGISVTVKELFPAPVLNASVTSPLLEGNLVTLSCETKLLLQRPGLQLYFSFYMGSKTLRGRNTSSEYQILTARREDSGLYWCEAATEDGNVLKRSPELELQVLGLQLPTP

Chain of BMS-986325 (antibody) (heavy): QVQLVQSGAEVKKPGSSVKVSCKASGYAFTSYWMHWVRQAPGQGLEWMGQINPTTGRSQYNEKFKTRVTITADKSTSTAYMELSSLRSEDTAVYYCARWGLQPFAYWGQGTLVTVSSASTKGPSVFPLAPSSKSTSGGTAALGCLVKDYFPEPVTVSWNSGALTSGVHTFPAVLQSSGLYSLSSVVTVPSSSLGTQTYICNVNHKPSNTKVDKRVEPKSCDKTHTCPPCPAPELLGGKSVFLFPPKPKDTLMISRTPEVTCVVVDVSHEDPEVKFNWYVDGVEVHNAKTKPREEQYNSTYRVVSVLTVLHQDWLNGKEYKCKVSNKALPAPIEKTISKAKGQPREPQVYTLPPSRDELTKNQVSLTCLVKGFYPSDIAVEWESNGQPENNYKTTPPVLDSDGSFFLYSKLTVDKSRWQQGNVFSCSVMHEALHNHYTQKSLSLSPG
Chain of BMS-986325 (antibody) (light): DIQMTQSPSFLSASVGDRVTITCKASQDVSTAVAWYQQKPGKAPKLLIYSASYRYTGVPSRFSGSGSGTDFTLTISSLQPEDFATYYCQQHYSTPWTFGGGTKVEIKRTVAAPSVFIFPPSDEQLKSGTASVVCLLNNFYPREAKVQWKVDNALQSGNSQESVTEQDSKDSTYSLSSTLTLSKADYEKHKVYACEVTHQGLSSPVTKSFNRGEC
Chain of hCD32a-R131 (human) (P12318 36-218 H167R limits assumed): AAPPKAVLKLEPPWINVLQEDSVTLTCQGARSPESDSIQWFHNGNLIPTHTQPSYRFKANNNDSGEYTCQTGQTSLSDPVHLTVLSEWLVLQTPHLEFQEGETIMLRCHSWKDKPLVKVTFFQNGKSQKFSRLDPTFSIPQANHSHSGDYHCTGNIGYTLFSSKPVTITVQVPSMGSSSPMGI
Chain of hCD16a-F158 (human) (P08637 17-208 limits assumed): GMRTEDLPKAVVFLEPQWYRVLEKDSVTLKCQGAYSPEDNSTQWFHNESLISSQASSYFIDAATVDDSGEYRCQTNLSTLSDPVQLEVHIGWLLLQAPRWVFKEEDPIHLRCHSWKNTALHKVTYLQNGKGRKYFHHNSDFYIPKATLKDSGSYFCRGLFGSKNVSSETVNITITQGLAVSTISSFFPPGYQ
Chain of hCD32a-H131 (human) (P12318 36-218 limits assumed): as the sequence (P12318 36-218 H167R limits assumed) above, with R132H counted along it
Chain of hCD32b (human) (P31994 43-217 limits assumed): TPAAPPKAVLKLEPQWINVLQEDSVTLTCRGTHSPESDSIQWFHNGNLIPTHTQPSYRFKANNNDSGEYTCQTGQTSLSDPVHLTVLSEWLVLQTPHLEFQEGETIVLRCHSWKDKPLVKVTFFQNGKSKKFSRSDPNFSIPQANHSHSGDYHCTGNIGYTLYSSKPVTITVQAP
Chain of hCD16a-V158 (human) (P08637 17-208 F176V limits assumed): as the sequence (P08637 17-208 limits assumed) above, with F160V counted along it
Chain of cyCD16 (cynomolgus monkey) (Q8SPW2 17-208 limits assumed): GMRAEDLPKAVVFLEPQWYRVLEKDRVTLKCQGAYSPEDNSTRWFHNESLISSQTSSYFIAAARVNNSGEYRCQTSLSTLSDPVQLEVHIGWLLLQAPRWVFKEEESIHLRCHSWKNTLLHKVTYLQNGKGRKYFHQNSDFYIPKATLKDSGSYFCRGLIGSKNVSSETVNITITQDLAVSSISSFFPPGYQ

Row | Substance | Kd [1] | Kd [2] | Kd [3] | Kd [4] | Kd (hCD16a-F158 (human)) | Kd (hCD16a-V158 (human)) | Kd (hCD32a-H131 (human)) | Kd (hCD32a-R131 (human)) | Kd (hCD32b (human)) | Kd (hCD64 (human)) | fold weaker binding than wild-type human IgG1 control [4]
1 | wild-type human IgG1 control (antibody) | 164 nM | 1520 nM | 877 nM | < 0.1 nM | 4430 nM | 119 nM | 446 nM | 665 nM | 3090 nM | < 0.1 nM | –
2 | BMS-986325 (antibody) | – | – | – | 13 nM | – | – | – | – | – | – | 100 fold
